Test results as given in the supplement of paper PMC10065799, “High-throughput profiling of sequence recognition by tyrosine kinases and SH2 domains using bacterial peptide display” (eLife, 2023).
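Further: 11-residue human phosphosite peptides and single-mutation variants displayed on the E. coli surface, counted by deep sequencing, each peptide's frequency after selection divided by its frequency in the unselected input library; frequency after pTyr selection over input frequency; kinase dosed for 20-30% of maximal phosphorylation in three min.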

These sequences were tested on c-Src (assay: phosphorylation enrichment, bacterial display (enrichment ratio); higher = better substrate or ligand; peptides without Tyr show the background).
In the case of MNPPPYSQFLS [FGF23_Y154], the phosphorylation enrichment is reported as 1.38.
Sequence LQFRNYQQLFD [MAN2A1_Y442_K440R] has a phosphorylation enrichment of 1.03.
SWKRRYFLLWA [APBB1IP_Y331_R335W] was tested, and the phosphorylation enrichment was 0.661.
With ADRSCYDLSCR [GARS1_Y467_H472R] the phosphorylation enrichment was 0.616.
In the case of KNDSKYVVKGN [KIT_Y823_N822K], the phosphorylation enrichment is reported as 0.473.
FSEVRYMKEPF [HIPK4_Y170_V171M_YF] gave a phosphorylation enrichment of 0.388.
Work on VNFDDYTVNLG [GFPT1_Y367] yielded a phosphorylation enrichment of 1.19.
Sequence DDSSAYCSVDE [BCKDHA_Y345_R346C] has a phosphorylation enrichment of 0.535.
WASGIYFVPKG [APBB1IP_Y340_R335W_YF] showed a phosphorylation enrichment of 5.32.
Sequence VVLVSYVPSSQ [SH2B1_Y624] has a phosphorylation enrichment of 0.336.
Work on ISSLDYISKSK [VAV3_Y294_T298S] yielded a phosphorylation enrichment of 0.478.
PIPAAYNRFDQ [CDC73_Y290_YF] gave a phosphorylation enrichment of 0.303.
In the case of RCYVYYYSYLL [PTEN_Y177_R173C], the phosphorylation enrichment is reported as 1.36.
Work on YSMGCYEFSLG [HMGCL_Y198_I200F] yielded a phosphorylation enrichment of 2.37.
VDLIVYLRTNP [TK2_Y181] showed a phosphorylation enrichment of 0.364.
LEAVSYSSPYA [RNLS_Y190_R193P] was tested, and the phosphorylation enrichment was 1.12.
For ATGGFYSFGGG [KRT24_Y120_YF], the phosphorylation enrichment was 1.83.
Work on PKGTGCIKTEL [STAT1_Y701_Y701C] yielded a phosphorylation enrichment of 0.457.
Work on GKVADYIPQLP [GLS_Y249_A254P] yielded a phosphorylation enrichment of 0.484.
With NTPNAYLRVNV [ADD2_Y440_T439A] the phosphorylation enrichment was 0.391.
EQKKFYNAMKN [SCN5A_Y1495_K1500N_YF] was tested, and the phosphorylation enrichment was 0.409.
In the case of YQNGMYGLHQD [SGSH_Y89_H84Y], the phosphorylation enrichment is reported as 0.957.
Work on YPPTHYIRRVP [SLC4A11_Y820] yielded a phosphorylation enrichment of 0.449.
SVTCTSSPALN [TP53_Y126_Y126S] gave a phosphorylation enrichment of 0.47.
LNCAGYCDALE [MTUS1_Y151] gave a phosphorylation enrichment of 0.683.
In the case of AIGYEYSEINI [SIGLEC12_Y588], the phosphorylation enrichment is reported as 2.03.
VVEYGYEFFAK [PPP1CB_Y254_D252Y] showed a phosphorylation enrichment of 0.719.
Work on TSNQEYLDVSM [FGFR1_Y766_L769V] yielded a phosphorylation enrichment of 0.415.
Sequence CFSSEYHFVGG [CTSC_Y345_Y340C_YF] has a phosphorylation enrichment of 1.85.
Sequence YAKSVYWDNTL [NUP107_Y296_E298D] has a phosphorylation enrichment of 0.736.
In the case of VHNLDYYKQTT [FGFR3_Y647_K650Q], the phosphorylation enrichment is reported as 0.697.
GISDEYHVIQH [GCDH_Y398_R402Q] gave a phosphorylation enrichment of 0.898.
For HRDDGYMPMSP [IRS1_Y612_T608R], the phosphorylation enrichment was 0.589.

What follows are sequences tested against FGFR1 (UniProt P11362) in the same assay as above.
Chain of FGFR1 (P11362 whole entry, looked up): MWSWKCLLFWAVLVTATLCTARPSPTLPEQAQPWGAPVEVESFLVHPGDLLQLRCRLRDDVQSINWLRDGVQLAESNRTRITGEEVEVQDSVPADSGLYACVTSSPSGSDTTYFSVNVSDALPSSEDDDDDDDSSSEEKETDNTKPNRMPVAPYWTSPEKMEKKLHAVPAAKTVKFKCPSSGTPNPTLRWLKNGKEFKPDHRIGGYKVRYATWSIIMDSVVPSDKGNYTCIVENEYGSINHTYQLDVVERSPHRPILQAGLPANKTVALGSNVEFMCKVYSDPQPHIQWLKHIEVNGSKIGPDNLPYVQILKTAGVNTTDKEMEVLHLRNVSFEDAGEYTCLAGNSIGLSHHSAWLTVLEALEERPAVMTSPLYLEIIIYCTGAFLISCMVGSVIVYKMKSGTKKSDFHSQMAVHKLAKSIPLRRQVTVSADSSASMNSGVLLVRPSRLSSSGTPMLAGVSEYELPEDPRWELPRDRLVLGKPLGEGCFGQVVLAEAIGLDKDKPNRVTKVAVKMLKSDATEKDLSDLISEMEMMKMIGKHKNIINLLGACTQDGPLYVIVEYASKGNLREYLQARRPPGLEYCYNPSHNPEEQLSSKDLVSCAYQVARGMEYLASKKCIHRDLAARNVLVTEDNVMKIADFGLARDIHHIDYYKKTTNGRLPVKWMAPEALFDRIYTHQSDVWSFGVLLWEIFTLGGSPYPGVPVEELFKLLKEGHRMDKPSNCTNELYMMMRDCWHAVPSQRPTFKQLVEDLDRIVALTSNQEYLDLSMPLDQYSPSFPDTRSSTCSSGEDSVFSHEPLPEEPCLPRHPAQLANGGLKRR
MNPPPYSQFLS [FGF23_Y154] was tested, and the phosphorylation enrichment was 0.508.
LQFRNYQQLFD [MAN2A1_Y442_K440R] gave a phosphorylation enrichment of 0.857.
Sequence SWKRRYFLLWA [APBB1IP_Y331_R335W] has a phosphorylation enrichment of 0.479.
With ADRSCYDLSCR [GARS1_Y467_H472R] the phosphorylation enrichment was 0.499.
With KNDSKYVVKGN [KIT_Y823_N822K] the phosphorylation enrichment was 0.382.
In the case of FSEVRYMKEPF [HIPK4_Y170_V171M_YF], the phosphorylation enrichment is reported as 0.451.
VNFDDYTVNLG [GFPT1_Y367] showed a phosphorylation enrichment of 0.705.
For DDSSAYCSVDE [BCKDHA_Y345_R346C], the phosphorylation enrichment was 0.544.
With WASGIYFVPKG [APBB1IP_Y340_R335W_YF] the phosphorylation enrichment was 4.77.
Work on VVLVSYVPSSQ [SH2B1_Y624] yielded a phosphorylation enrichment of 0.506.
Sequence ISSLDYISKSK [VAV3_Y294_T298S] has a phosphorylation enrichment of 0.458.
For PIPAAYNRFDQ [CDC73_Y290_YF], the phosphorylation enrichment was 0.456.
Work on RCYVYYYSYLL [PTEN_Y177_R173C] yielded a phosphorylation enrichment of 1.35.
For YSMGCYEFSLG [HMGCL_Y198_I200F], the phosphorylation enrichment was 1.23.
In the case of VDLIVYLRTNP [TK2_Y181], the phosphorylation enrichment is reported as 0.358.
For LEAVSYSSPYA [RNLS_Y190_R193P], the phosphorylation enrichment was 0.697.
With ATGGFYSFGGG [KRT24_Y120_YF] the phosphorylation enrichment was 0.481.
In the case of PKGTGCIKTEL [STAT1_Y701_Y701C], the phosphorylation enrichment is reported as 0.558.
For GKVADYIPQLP [GLS_Y249_A254P], the phosphorylation enrichment was 0.57.
For NTPNAYLRVNV [ADD2_Y440_T439A], the phosphorylation enrichment was 0.437.
With EQKKFYNAMKN [SCN5A_Y1495_K1500N_YF] the phosphorylation enrichment was 0.366.
YQNGMYGLHQD [SGSH_Y89_H84Y] was tested, and the phosphorylation enrichment was 0.605.
YPPTHYIRRVP [SLC4A11_Y820] showed a phosphorylation enrichment of 0.448.
SVTCTSSPALN [TP53_Y126_Y126S] gave a phosphorylation enrichment of 0.476.
In the case of LNCAGYCDALE [MTUS1_Y151], the phosphorylation enrichment is reported as 0.55.
With AIGYEYSEINI [SIGLEC12_Y588] the phosphorylation enrichment was 5.67.
In the case of VVEYGYEFFAK [PPP1CB_Y254_D252Y], the phosphorylation enrichment is reported as 0.762.
With TSNQEYLDVSM [FGFR1_Y766_L769V] the phosphorylation enrichment was 1.24.
With CFSSEYHFVGG [CTSC_Y345_Y340C_YF] the phosphorylation enrichment was 10.4.
Work on YAKSVYWDNTL [NUP107_Y296_E298D] yielded a phosphorylation enrichment of 0.515.
VHNLDYYKQTT [FGFR3_Y647_K650Q] was tested, and the phosphorylation enrichment was 1.36.
Work on GISDEYHVIQH [GCDH_Y398_R402Q] yielded a phosphorylation enrichment of 6.93.
In the case of HRDDGYMPMSP [IRS1_Y612_T608R], the phosphorylation enrichment is reported as 0.534.
